Measurements: US20130267423A1, “PEPTIDE LIBRARIES FOR SCREENING AND OTHER APPLICATIONS” (priority 2010, published 2013)

Experiments:
[1] = molecular target: T1, C-reactive protein (CRP) (Homo sapiens, UniProt P02741); assay: Affinity measurements by surface plasmon resonance (Biacore T100, CRP immobilized on CM5 chip); assay type: binding; settings: CRP immobilized approx. 5000 RU; peptide 5 micromolar down to 2 nM; 25° C.; FIG. 8A
T1 sequence (P02741 19-224): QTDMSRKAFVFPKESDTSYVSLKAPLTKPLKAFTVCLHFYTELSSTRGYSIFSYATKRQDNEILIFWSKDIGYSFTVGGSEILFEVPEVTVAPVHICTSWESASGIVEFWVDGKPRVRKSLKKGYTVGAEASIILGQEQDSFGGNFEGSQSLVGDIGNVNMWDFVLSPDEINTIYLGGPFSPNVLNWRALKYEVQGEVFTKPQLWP
Method: Affinity measurements. Affinity measurements were performed using a Biacore T100 system and research grade CM5 sensor chips (GE Heathcare). The instrument was primed with HBS-EP+ (GE Heathcare) buffer. Flow cell 1 (or 3) was used as a reference to subtract nonspecific binding, drift, and the bulk refractive index, while flow cell 2 (or 4) was immobilized with CRP following standard procedures. A 1:1 mixture of 0.4 M EDC and 0.1 M NHS was used to activate flow cell 2 (or 4), and 0.1 mg/mL CRP solution was injected. Blocking of the remaining activated groups was done with a 1 M solution of ethanolamine (pH 8.5). CRP was immobilized onto the sensor chip surface by approximately 5000 response units (RU). The instrument was then primed using running buffer (HBS-EP+). Each of the 6-mer ligand candidates identified were dissolved in HBS-EP+ buffer to produce 5 micromolar peptide stock solutions for each peptide, which were serially diluted by a factor of 2 to produce a concentration series down to 2 nM. For a given affinity measurement, these series of peptide solutions successively were injected into flow cell 2 (or 4) for 3 min of contact time, 5 min of dissociation time, and 3.5 min of stabilization time using a flow rate of 100 microliter/min at 25° C. Flow cell 2 (or 4) was regenerated by glycine 2.5 (GE Healthcare) after injection of each peptide solution.

[2] = molecular target: T1, C-reactive protein (CRP); assay: Dot blot selectivity/sensitivity assay with biotinylated 6-mer peptides; assay type: binding; settings: biotinylated 6-mer at 1 micromolar in 5% nonfat milk/TBS-T; CRP 20 micrograms to 2 ng per spot; FIG. 8B
Method: Dot blot selectivity/sensitivity assays in serum. […] CRP solution was prepared as 10 mg/mL stocks in PBS buffer (pH 7.4). A dilution series of CRP solution was applied to a nitrocellulose membrane, typically ranging from 20 micrograms to 2 ng per spot. The membrane was blocked at room temperature for 2 h in 5% nonfat milk/TBS-T. The membrane was then washed with TBS-T. The biotinylated 6-mer solution was prepared at 1 micromolar in 5% nonfat milk/TBS-T and incubated over the membrane for 2 h at room temperature. After washing three times with TBS-T for 10 min, 1:3000 streptavidin-HRP (Abeam) prepared in 0.5% milk/TBS-T was added to the membrane and incubated for 2 h. After washing three times with TBS-T for 10 min, the membrane was treated with chemiluminescent reagents (Amersham ECL plus Western blotting detection reagents, GE Healthcare) and then immediately developed on film.

binding affinity to CRP / response in SPR [1]	binding affinity to CRP / response in dot blot [2]	Substance
highest response	highest response	LYFRRW (Synthetic Peptide Fragment) [6-mer CRP ligand candidate from focused library B screening]
highest response	highest response	WKFRYK (Synthetic Peptide Fragment) [6-mer CRP ligand candidate from focused library A screening]
